From patent US5834290 come the findings set out here.

Data set [1] concerns the target T1, soybean trypsin inhibitor (SBTI), P01070.
T1 chain: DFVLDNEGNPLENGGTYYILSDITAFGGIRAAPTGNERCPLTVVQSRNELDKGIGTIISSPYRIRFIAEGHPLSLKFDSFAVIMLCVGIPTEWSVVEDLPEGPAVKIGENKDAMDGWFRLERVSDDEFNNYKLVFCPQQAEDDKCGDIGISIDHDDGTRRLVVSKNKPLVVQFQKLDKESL
As to the kind of experiment: affinity chromatography of KCl-extracts of plantar corneocytes on covalently linked soybean trypsin inhibitor.

Data set [2] has as its target desmoglein I (DG I) (Homo sapiens (Human)) (UniProt Q02413).

Chain of desmoglein I (DG I) (Homo sapiens (Human)) (Q02413 50-1049 limits assumed): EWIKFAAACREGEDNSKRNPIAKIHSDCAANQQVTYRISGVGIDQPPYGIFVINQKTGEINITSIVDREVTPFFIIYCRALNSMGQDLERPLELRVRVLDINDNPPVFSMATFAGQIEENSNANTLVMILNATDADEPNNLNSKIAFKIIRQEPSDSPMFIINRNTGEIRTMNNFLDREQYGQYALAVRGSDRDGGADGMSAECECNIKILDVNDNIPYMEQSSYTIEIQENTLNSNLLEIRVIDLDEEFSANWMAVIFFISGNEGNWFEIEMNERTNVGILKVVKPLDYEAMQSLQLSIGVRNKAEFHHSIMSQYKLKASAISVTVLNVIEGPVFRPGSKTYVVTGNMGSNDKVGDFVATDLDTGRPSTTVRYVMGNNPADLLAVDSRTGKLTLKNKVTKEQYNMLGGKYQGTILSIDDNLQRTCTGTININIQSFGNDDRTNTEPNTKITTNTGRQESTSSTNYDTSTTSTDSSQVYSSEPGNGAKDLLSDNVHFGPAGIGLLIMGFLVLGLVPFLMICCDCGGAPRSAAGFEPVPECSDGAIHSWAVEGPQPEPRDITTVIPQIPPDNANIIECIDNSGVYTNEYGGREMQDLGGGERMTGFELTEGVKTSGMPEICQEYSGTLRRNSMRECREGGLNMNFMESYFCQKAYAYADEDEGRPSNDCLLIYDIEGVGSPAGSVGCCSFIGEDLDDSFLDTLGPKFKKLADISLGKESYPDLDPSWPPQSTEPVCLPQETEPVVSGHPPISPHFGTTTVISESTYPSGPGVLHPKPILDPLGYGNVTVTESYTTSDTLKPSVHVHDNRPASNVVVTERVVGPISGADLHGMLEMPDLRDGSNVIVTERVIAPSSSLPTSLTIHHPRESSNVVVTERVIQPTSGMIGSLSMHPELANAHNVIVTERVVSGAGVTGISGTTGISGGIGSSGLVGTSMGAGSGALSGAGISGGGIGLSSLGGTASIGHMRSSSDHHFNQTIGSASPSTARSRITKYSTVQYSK

B1: stratum corneum chymotryptic enzyme (SCCE), native, from human plantar stratum corneum (protein)
chain: IIDGAPCARGSHPWQVALLSGNQLHCGGVLVNERWVLTAAHCKMNEYTVHLGSDTLGDRRAQRIKASKSFRHPGYSTQTHVNDLMLVKLNSQARLSSMVKKVRLPSRCEPPGTTCTVSGWGTTTSPDVTFPSDLMCVDVKLISPQDCTKVYKDLLENSMLCAGIPDSKKNACNGDSGGPLVCRGTLQGLVSWGTFPCGQPNDPGVYTQVCKFTKWINDTMKKHR
Turning to B1, the “percent of the S-2586 hydrolyzing activity bound to the gel” value in data set [1] is recorded as “Approximately 90% of the S-2586 hydrolyzing activity was bound to the gel”.

B2: recombinant SCCE, active (trypsin-activated recombinant SCCE of Example 10; rSCCE of Examples 12 and 13) (enzyme)
chain: IIDGAPCARGSHPWQVALLSGNQLHCGGVLVNERWVLTAAHCKMNEYTVHLGSDTLGDRRAQRIKASKSFRHPGYSTQTHVNDLMLVKLNSQARLSSMVKKVRLPSRCEPPGTTCTVSGWGTTTSPDVTFPSDLMCVDVKLISPQDCTKVYKDLLENSMLCAGIPDSKKNACNGDSGGPLVCRGTLQGLVSWGTFPCGQPNDPGVYTQVCKFTKWINDTMKKHR
B2 had a levels of the desmosome marker protein desmoglein I after 24 hours at 37° C., DG I (arbitrary units/mg squames) (arbitrary units/mg squames) in data set [2] of 4060.
